In patent US5942602:

Tests used:
[1] = biological target: human full-length EGF receptor (human) (UniProt P00533)
[2] = biological target: EGFRvIII (human) (UniProt P00533)
[3] = biological target: human full-length EGF receptor (human) (UniProt P00533); remark: listed apart in the source
[4] = biological target: human full-length EGF receptor (human) (UniProt P00533); remark: listed apart in the source
[5] = biological target: EGFRvIII (human) (UniProt P00533); remark: listed apart in the source

scFv(225) was tested, and the competition of TGFα-ETA (100 ng/ml) cytotoxicity by 10 µg/ml scFv, 40 h; MDA-MB468 cells (also A431 and SKBR3) (% cell killing) [1] was 63.

For TGFα-ETA (from UniProt P01135), the IC50 of cell killing, DH-EΔ801-5 cells, 40 h [2] was greater than 1 µg/mL, the IC50 of cell killing, SKBR3 cells, 40 h [3] was 0.09 µg/mL and the IC50 of cell killing, DH-EGFR-E cells, 40 h [4] was 0.042 µg/mL. The IC50 of cell killing, DH-EΔ801-P cells, 40 h [5] was 0.7 µg/mL.
